Results reported in the supplement of paper PMC9112550, “Optimization of the antimicrobial peptide Bac7 by deep mutational scanning” (BMC Biology, 2022).

test system: Escherichia coli TOP10; experiment: shrunken log2 fold change of peptide-encoding DNA abundance (4.5 h post-induction vs induction); higher = less antimicrobial activity (less host growth inhibition); settings: time post-induction: 4.5 h; library: site-saturation at positions 5, 18, 19, 20
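Further: peptides expressed intracellularly from a pBAD plasmid library in pooled LB shake-flask culture, induced with 0.3% L-arabinose, DNA abundance read by NGS, three biological replicates, DESeq2 with apeglm shrinkage.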

Point of comparison: RRIRLRPPRLPRPRPRPYKNPRP, “shrunken log2 fold change” value -0.631. Against it:
- RRIRNRPPRLPRPRPRPSTPPRP — higher, -0.103
- RRIRTRPPRLPRPRPRPRSQPRP — higher, 1.58
- RRIRCRPPRLPRPRPRPRKMPRP — higher, -0.00382
- RRIRGRPPRLPRPRPRPHMLPRP — higher, 0.142
- RRIRMRPPRLPRPRPRPMGLPRP — higher, 0.0299
- RRIRRRPPRLPRPRPRPYTDPRP — higher, -0.0165
- RRIRDRPPRLPRPRPRPPGFPRP — higher, 0.348
- RRIRRRPPRLPRPRPRPVFQPRP — higher, 0.00379
- RRIRERPPRLPRPRPRPMTRPRP — higher, -0.00264
- RRIRWRPPRLPRPRPRPIWGPRP — higher, -0.01
- RRIRCRPPRLPRPRPRPAFHPRP — higher, -0.389
- RRIRIRPPRLPRPRPRPPYQPRP — higher, 2.02
- RRIRVRPPRLPRPRPRPCGFPRP — higher, 0.624
- RRIRERPPRLPRPRPRPGLEPRP — higher, -0.114
- RRIRHRPPRLPRPRPRPGCPPRP — higher, -0.0112
- RRIRGRPPRLPRPRPRPQTYPRP — higher, 0.0285
- RRIRGRPPRLPRPRPRPKVGPRP — higher, 0.721
- RRIRKRPPRLPRPRPRPYVIPRP — higher, -0.112
- RRIRFRPPRLPRPRPRPYDEPRP — within 0.2 log units, -0.526
- RRIRTRPPRLPRPRPRPPWVPRP — higher, 0.128
- RRIRSRPPRLPRPRPRPTAGPRP — higher, 0.679
- RRIRMRPPRLPRPRPRPKEQPRP — higher, 1.26
- RRIRVRPPRLPRPRPRPVTNPRP — within 0.2 log units, -0.68
- RRIRKRPPRLPRPRPRPSYSPRP — higher, -0.413
- RRIRCRPPRLPRPRPRPPSKPRP — higher, 0.133
- RRIRERPPRLPRPRPRPAFMPRP — higher, -0.154
- RRIRHRPPRLPRPRPRPWFVPRP — higher, -0.14
- RRIRWRPPRLPRPRPRPPGNPRP — higher, 0.687
- RRIRERPPRLPRPRPRPHLMPRP — higher, 1.19
- RRIRYRPPRLPRPRPRPQYDPRP — higher, -0.0291
- RRIRHRPPRLPRPRPRPQMKPRP — within 0.2 log units, -0.553
- RRIRCRPPRLPRPRPRPEDVPRP — higher, -0.0129
- RRIRERPPRLPRPRPRPENKPRP — within 0.2 log units, -0.697
- RRIRGRPPRLPRPRPRPVTFPRP — higher, 0.172
- RRIRPRPPRLPRPRPRPWKPPRP — higher, -0.149
- RRIRCRPPRLPRPRPRPISQPRP — within 0.2 log units, -0.544
- RRIRLRPPRLPRPRPRPIVTPRP — higher, 2.68
- RRIRKRPPRLPRPRPRPPDFPRP — higher, 0.12
- RRIRCRPPRLPRPRPRPLFRPRP — higher, -0.283
- RRIRQRPPRLPRPRPRPMRTPRP — higher, 0.661
- RRIRNRPPRLPRPRPRPNFLPRP — higher, -0.0488
- RRIRMRPPRLPRPRPRPQIMPRP — higher, -0.0466
- RRIRIRPPRLPRPRPRPFQEPRP — higher, -0.0383
- RRIRHRPPRLPRPRPRPIINPRP — higher, -0.324
- RRIRDRPPRLPRPRPRPNKDPRP — lower, -0.951
- RRIRNRPPRLPRPRPRPHLEPRP — higher, 0.0549
- RRIRWRPPRLPRPRPRPACPPRP — higher, 0.105
- RRIRHRPPRLPRPRPRPNLRPRP — higher, 0.00562
- RRIRIRPPRLPRPRPRPVMGPRP — within 0.2 log units, -0.718
- RRIRFRPPRLPRPRPRPCCNPRP — higher, -0.0548
- RRIRRRPPRLPRPRPRPTWFPRP — higher, 0.0478
- RRIRCRPPRLPRPRPRPANNPRP — higher, -0.409
- RRIRQRPPRLPRPRPRPFRAPRP — higher, 0.0134
- RRIRPRPPRLPRPRPRPSFVPRP — within 0.2 log units, -0.436
- RRIRERPPRLPRPRPRPNQIPRP — higher, -0.293
- RRIRHRPPRLPRPRPRPWHRPRP — higher, -0.119
- RRIRTRPPRLPRPRPRPKWAPRP — higher, 0.0541
- RRIRIRPPRLPRPRPRPSTPPRP — higher, -0.373
- RRIRHRPPRLPRPRPRPTMFPRP — higher, -0.0195
- RRIRIRPPRLPRPRPRPGFWPRP — higher, 0.0561
- RRIRLRPPRLPRPRPRPNPLPRP — higher, 0.256
- RRIRLRPPRLPRPRPRPPRFPRP — higher, 0.209
- RRIRARPPRLPRPRPRPRTSPRP — higher, 0.382
- RRIRKRPPRLPRPRPRPMNHPRP — higher, 0.395
- RRIRDRPPRLPRPRPRPIDIPRP — higher, -0.0169
- RRIRPRPPRLPRPRPRPYTQPRP — within 0.2 log units, -0.608
- RRIRGRPPRLPRPRPRPALSPRP — higher, 1.31
- RRIRGRPPRLPRPRPRPDILPRP — higher, 0.785
- RRIRSRPPRLPRPRPRPNDFPRP — higher, -0.19
- RRIRKRPPRLPRPRPRPIVSPRP — higher, -0.0354
- RRIRHRPPRLPRPRPRPRKEPRP — higher, -0.0122
- RRIRERPPRLPRPRPRPMMRPRP — higher, 0.169
- RRIRLRPPRLPRPRPRPQQWPRP — higher, -0.0673
- RRIRVRPPRLPRPRPRPLQYPRP — higher, 1.72
- RRIRNRPPRLPRPRPRPKKQPRP — higher, -0.0788
- RRIRCRPPRLPRPRPRPEIIPRP — higher, -0.363
- RRIRERPPRLPRPRPRPGTIPRP — higher, -0.386
- RRIRWRPPRLPRPRPRPWAKPRP — higher, 0.279
- RRIRCRPPRLPRPRPRPLELPRP — higher, 0.172
- RRIRQRPPRLPRPRPRPYILPRP — within 0.2 log units, -0.773
- RRIRCRPPRLPRPRPRPQLWPRP — higher, 0.366
- RRIRNRPPRLPRPRPRPVWRPRP — higher, 0.636
- RRIRCRPPRLPRPRPRPYSLPRP — higher, -0.258
- RRIRDRPPRLPRPRPRPGCGPRP — higher, 0.92
- RRIRRRPPRLPRPRPRPSAYPRP — higher, 0.104
- RRIRHRPPRLPRPRPRPKFVPRP — higher, -0.0479
- RRIRCRPPRLPRPRPRPKIPPRP — higher, -0.284
- RRIRARPPRLPRPRPRPSWEPRP — higher, 0.162
- RRIRTRPPRLPRPRPRPFPQPRP — higher, -0.042
- RRIRERPPRLPRPRPRPYTDPRP — lower, -0.956
- RRIRPRPPRLPRPRPRPYFKPRP — within 0.2 log units, -0.796
- RRIRFRPPRLPRPRPRPVNRPRP — higher, 0.188
- RRIRTRPPRLPRPRPRPQGDPRP — higher, -0.0192
- RRIRERPPRLPRPRPRPVTNPRP — higher, -0.0383
- RRIRERPPRLPRPRPRPWRIPRP — higher, -0.0301
- RRIRDRPPRLPRPRPRPNLCPRP — higher, 0.0227
- RRIRLRPPRLPRPRPRPSRKPRP — higher, -0.177
- RRIRRRPPRLPRPRPRPGDRPRP — higher, 0.265
- RRIRTRPPRLPRPRPRPHVAPRP — higher, 0.268
- RRIRPRPPRLPRPRPRPVDYPRP — higher, 0.0307
- RRIRGRPPRLPRPRPRPGAIPRP — higher, 1.44
- RRIRIRPPRLPRPRPRPCDFPRP — lower, -0.834
- RRIRERPPRLPRPRPRPPMGPRP — higher, -0.107
- RRIRRRPPRLPRPRPRPHIVPRP — higher, -0.0515
- RRIRERPPRLPRPRPRPEDTPRP — higher, -0.343
- RRIRARPPRLPRPRPRPISSPRP — higher, -0.102
- RRIRQRPPRLPRPRPRPNAYPRP — higher, -0.279
- RRIRYRPPRLPRPRPRPSCQPRP — higher, -0.296
- RRIRRRPPRLPRPRPRPTKVPRP — higher, 0.118
- RRIRDRPPRLPRPRPRPEIGPRP — higher, 0.765
- RRIRERPPRLPRPRPRPNKDPRP — higher, -0.321
- RRIRWRPPRLPRPRPRPGCKPRP — higher, 0.123
- RRIRGRPPRLPRPRPRPFCIPRP — higher, 0.494
- RRIRCRPPRLPRPRPRPLIVPRP — within 0.2 log units, -0.596
- RRIRLRPPRLPRPRPRPIEMPRP — higher, -0.0708
- RRIRQRPPRLPRPRPRPKYAPRP — higher, -0.285
- RRIRTRPPRLPRPRPRPYFDPRP — within 0.2 log units, -0.738
- RRIRYRPPRLPRPRPRPIHQPRP — higher, -0.0218
- RRIRHRPPRLPRPRPRPHSDPRP — higher, 0.0468
- RRIRCRPPRLPRPRPRPWHQPRP — higher, -0.0304
- RRIRFRPPRLPRPRPRPNHIPRP — lower, -0.937
- RRIRFRPPRLPRPRPRPDTQPRP — higher, 0.0363
- RRIRLRPPRLPRPRPRPKMRPRP — higher, 0.608
- RRIRQRPPRLPRPRPRPPYCPRP — higher, 0.0161
- RRIRNRPPRLPRPRPRPYTKPRP — higher, -0.0607
- RRIRDRPPRLPRPRPRPAPEPRP — higher, 0.225
- RRIRWRPPRLPRPRPRPKYNPRP — within 0.2 log units, -0.558
- RRIRIRPPRLPRPRPRPDAHPRP — higher, -0.136
- RRIRRRPPRLPRPRPRPSTRPRP — higher, 0.194
- RRIRFRPPRLPRPRPRPQDKPRP — higher, -0.308
- RRIRGRPPRLPRPRPRPYNYPRP — higher, -0.129
- RRIRYRPPRLPRPRPRPGPEPRP — higher, 0.0444
- RRIRIRPPRLPRPRPRPVLQPRP — higher, 0.103
- RRIRDRPPRLPRPRPRPDCIPRP — higher, 0.438
- RRIRTRPPRLPRPRPRPRDDPRP — higher, 0.107
- RRIRTRPPRLPRPRPRPGKQPRP — higher, -0.184
- RRIRCRPPRLPRPRPRPNMYPRP — lower, -0.916
- RRIRGRPPRLPRPRPRPMWNPRP — higher, 0.557
- RRIRMRPPRLPRPRPRPYDVPRP — within 0.2 log units, -0.562
- RRIRARPPRLPRPRPRPDIVPRP — higher, 0.244
- RRIRGRPPRLPRPRPRPTTRPRP — higher, 0.79
- RRIRSRPPRLPRPRPRPWVCPRP — higher, 0.101
- RRIRTRPPRLPRPRPRPNWKPRP — higher, -0.0427
- RRIRERPPRLPRPRPRPNWLPRP — higher, -0.00723
- RRIRVRPPRLPRPRPRPFFSPRP — higher, -0.371
- RRIRYRPPRLPRPRPRPQCQPRP — higher, -0.00208
- RRIRCRPPRLPRPRPRPEVQPRP — higher, 0.267
- RRIRFRPPRLPRPRPRPANDPRP — higher, 0.0325
- RRIRKRPPRLPRPRPRPFFPPRP — higher, 0.967
